What was measured:
[1] = molecular target: T1, tetanus neurotoxin (TeNT), authentic tetanus holotoxin (Clostridium tetani, UniProt P04958 2-1315); assay: cell-based or functional assay
[2] = molecular target: T1, tetanus neurotoxin (TeNT), authentic …; assay: GT1b-TeNT inhibition ELISA
Target sequence in this assay (P04958 2-457 limits assumed, chain 1 of 2): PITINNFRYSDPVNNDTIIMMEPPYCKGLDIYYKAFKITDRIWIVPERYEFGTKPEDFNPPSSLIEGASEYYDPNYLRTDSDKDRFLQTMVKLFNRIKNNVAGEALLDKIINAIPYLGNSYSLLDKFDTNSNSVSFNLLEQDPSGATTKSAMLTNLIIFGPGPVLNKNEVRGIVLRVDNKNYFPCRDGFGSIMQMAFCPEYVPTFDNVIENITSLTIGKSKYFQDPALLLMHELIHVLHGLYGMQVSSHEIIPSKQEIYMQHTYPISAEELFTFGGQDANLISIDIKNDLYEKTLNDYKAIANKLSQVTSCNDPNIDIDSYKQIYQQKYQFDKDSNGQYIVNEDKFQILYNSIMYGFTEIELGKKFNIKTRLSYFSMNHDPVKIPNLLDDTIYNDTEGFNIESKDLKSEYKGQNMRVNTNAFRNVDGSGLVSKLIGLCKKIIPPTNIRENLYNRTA
Target sequence in this assay (P04958 458-1315 limits assumed, chain 2 of 2): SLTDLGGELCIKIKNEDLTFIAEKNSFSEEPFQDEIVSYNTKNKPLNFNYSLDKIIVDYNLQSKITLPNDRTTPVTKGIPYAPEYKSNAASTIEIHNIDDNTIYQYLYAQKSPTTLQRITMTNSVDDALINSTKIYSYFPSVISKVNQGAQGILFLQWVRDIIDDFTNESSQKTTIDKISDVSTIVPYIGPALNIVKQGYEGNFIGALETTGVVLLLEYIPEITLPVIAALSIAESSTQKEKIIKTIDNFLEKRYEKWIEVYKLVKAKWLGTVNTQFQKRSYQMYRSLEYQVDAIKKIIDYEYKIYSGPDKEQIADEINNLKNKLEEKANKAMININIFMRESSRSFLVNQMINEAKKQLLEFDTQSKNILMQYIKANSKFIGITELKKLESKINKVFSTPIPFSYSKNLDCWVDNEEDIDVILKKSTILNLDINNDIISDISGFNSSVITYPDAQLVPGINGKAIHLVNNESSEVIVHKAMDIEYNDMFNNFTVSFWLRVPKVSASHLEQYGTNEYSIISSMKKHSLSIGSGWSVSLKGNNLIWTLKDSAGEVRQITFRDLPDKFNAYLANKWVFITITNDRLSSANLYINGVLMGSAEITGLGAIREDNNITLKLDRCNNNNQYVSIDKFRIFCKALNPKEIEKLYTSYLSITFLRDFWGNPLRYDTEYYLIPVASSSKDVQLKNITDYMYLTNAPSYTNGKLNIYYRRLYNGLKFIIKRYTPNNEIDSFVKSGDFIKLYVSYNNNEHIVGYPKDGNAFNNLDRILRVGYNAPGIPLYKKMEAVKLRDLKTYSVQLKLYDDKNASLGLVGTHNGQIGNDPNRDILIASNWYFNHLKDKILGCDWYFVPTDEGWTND

[3] = molecular target: T1, tetanus neurotoxin (TeNT), authentic …; assay: GT1b-TeNT inhibition ELISA; remark: listed apart in the source
Target sequence in this assay (P04958 2-457 limits assumed, chain 1 of 2): as the sequence (P04958 2-457 limits assumed, chain 1 of 2) above
Target sequence in this assay (P04958 458-1315 limits assumed, chain 2 of 2): as the sequence (P04958 458-1315 limits assumed, chain 2 of 2) above

[4] = molecular target: dog IgG (chrompure dog IgG) (dog)
[5] = molecular target: dog IgG (chrompure dog IgG) (dog); remark: listed apart in the source
[6] = molecular target: T1, tetanus neurotoxin (TeNT), authentic …; assay: ELISA: directly coated TeNT, anti-his6 PO
Target sequence in this assay (P04958 2-457 limits assumed, chain 1 of 2): as the sequence (P04958 2-457 limits assumed, chain 1 of 2) above
Target sequence in this assay (P04958 458-1315 limits assumed, chain 2 of 2): as the sequence (P04958 458-1315 limits assumed, chain 2 of 2) above

[7] = molecular target: T1, tetanus neurotoxin (TeNT), authentic …; assay: ELISA: directly coated TeNT, anti-his6 PO; remark: listed apart in the source
[8] = molecular target: T1, tetanus neurotoxin (TeNT), authentic …; assay: ELISA: directly coated TeNT, goat anti-llama Ig PO
Target sequence in this assay (P04958 2-457 limits assumed, chain 1 of 2): as the sequence (P04958 2-457 limits assumed, chain 1 of 2) above
Target sequence in this assay (P04958 458-1315 limits assumed, chain 2 of 2): as the sequence (P04958 458-1315 limits assumed, chain 2 of 2) above

[9] = molecular target: T1, tetanus neurotoxin (TeNT), authentic …; assay: ELISA: directly coated TeNT, goat anti-llama Ig PO; remark: listed apart in the source
Target sequence in this assay (P04958 2-457 limits assumed, chain 1 of 2): as the sequence (P04958 2-457 limits assumed, chain 1 of 2) above
Target sequence in this assay (P04958 458-1315 limits assumed, chain 2 of 2): as the sequence (P04958 458-1315 limits assumed, chain 2 of 2) above

[10] = molecular target: T1, tetanus neurotoxin (TeNT), authentic …; assay: bridging ELISA: coated dog IgG, SDA, biotinylated TeNT, StrepPO
Target sequence in this assay (P04958 2-457 limits assumed, chain 1 of 2): as the sequence (P04958 2-457 limits assumed, chain 1 of 2) above
Target sequence in this assay (P04958 458-1315 limits assumed, chain 2 of 2): as the sequence (P04958 458-1315 limits assumed, chain 2 of 2) above

[11] = molecular target: T1, tetanus neurotoxin (TeNT), authentic …; assay: as above; remark: listed apart in the source
[12] = molecular target: T1, tetanus neurotoxin (TeNT), authentic …; assay: BLI (Octet Red96): biotinylated TeNT on SA sensor, SDA as analyte
[13] = molecular target: T1, tetanus neurotoxin (TeNT), authentic …; assay: bridging ELISA: coated TeNT, SDA, biotinylated TeNT, StrepPO (bivalent binding)
[14] = molecular target: T1, tetanus neurotoxin (TeNT), authentic …; assay: as above; remark: listed apart in the source
[15] = molecular target: T2, recombinant tetanus toxin fragment C (rTTC) (Clostridium tetani, UniProt P04958 865-1315); assay: ELISA, directly coated rTTC
T2 sequence: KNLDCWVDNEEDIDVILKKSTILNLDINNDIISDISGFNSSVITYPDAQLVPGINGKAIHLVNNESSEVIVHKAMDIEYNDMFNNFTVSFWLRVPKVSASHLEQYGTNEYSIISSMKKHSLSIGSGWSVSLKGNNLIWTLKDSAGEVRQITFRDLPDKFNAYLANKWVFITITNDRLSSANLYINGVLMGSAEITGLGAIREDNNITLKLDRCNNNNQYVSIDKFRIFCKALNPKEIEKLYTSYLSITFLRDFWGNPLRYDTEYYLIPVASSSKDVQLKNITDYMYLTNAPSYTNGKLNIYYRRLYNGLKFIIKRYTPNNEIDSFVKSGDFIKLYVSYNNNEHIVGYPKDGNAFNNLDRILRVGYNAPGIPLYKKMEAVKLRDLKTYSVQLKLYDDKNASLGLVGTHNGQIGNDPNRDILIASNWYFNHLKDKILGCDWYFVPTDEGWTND

[16] = molecular target: T3, tetanus neurotoxin (TeNT), authentic tetanus holotoxin (Clostridium tetani, UniProt P04958 2-1315); assay: ELISA, directly coated TeNT, E. coli supernatant
[17] = molecular target: T2, recombinant tetanus toxin fragment C …; assay: ELISA, directly coated rTTC, E. coli supernatant
[18] = molecular target: T3, tetanus neurotoxin (TeNT), authentic …; assay: ELISA, cAb-TT2 captured TeNT, E. coli supernatant
[19] = molecular target: T3, tetanus neurotoxin (TeNT), authentic …; assay: GT1b-TeNT inhibition ELISA (no SDA: 1.302, 1.257)

B1: SVT06-GS2-SVG13M4-H6 (bispecific antibody)
chain: QVQLQESGGGSVQAGGSLRLSCTASELSYDDYTIAWFRRAAGEGRVEDGEGVASITKSYDRAYDNKINYGHSVKGRFTISRDNAKNTVYLQMTDLLPSDTAVYYCALDITPPGGVGASLTEGFLFDYWGQGTQVTVSSGGGGSGGGSEVQLVESGGGLVQPGGSLRLSCEASGFTFDDYGMSWVRQAPGKGLEWVSSLTPNGGSTYYADSVKGRFTISRDNAKNTLYLQMNSLKPEDTALYYCAKNSYYGAMDYWGQGTQVTVSSHHHHHH
For B1, the Endpoint dilution factor [1] was 2.4, the “Potency IU/mg” value [1] was 1.04 IU/mg and the “SDA concentration providing full protection” value [1] was 1000 nM. The “minimal absorbance value (GT1b-TeNT inhibition)” value [2] was 0.22 A450, the “Effective SDA Concentration at A450 0.56” value [3] was 93 ng/mL and the maximal absorbance value [4] was 1.18 A450. For the same binder, the “Effective SDA Concentration at A450 0.2” value [5] was 46 ng/mL, the maximal absorbance value [6] was 1.44 A450 and the “Effective SDA Concentration at A450 0.15” value [7] was 3.4 ng/mL. The maximal absorbance value [8] was 1.2 A450, the “Effective SDA Concentration at A450 0.15” value [9] was 2 ng/mL and the maximal absorbance value [10] was 1.61 A450. The “Effective SDA Concentration at A450 0.3” value [11] was under 0.49 ng/mL, the Kd [12] was 123 pM and the koff [12] was 8.24e-05 s⁻¹. The kon [12] was 670000 M⁻¹ s⁻¹, the maximal absorbance value [13] was 0.98 A450 and the “Effective SDA Concentration at A450 0.3” value [14] was 9.6 ng/mL.

B2: SVT15-3FW4M-GS2-SVG13M4-H6 (bispecific antibody)
chain: QVQLQESGGGLVQTGGSLRLSCRASGRAFANYHFGWFRQAPGKDREFVASISWKGGSTYYANFALGRFTSSVDRAESSVYLQMSGLTPEDTATYYCAAHDGGDWNYHTGMDYWGQGTQVTVSSGGGGSGGGSEVQLVESGGGLVQPGGSLRLSCEASGFTFDDYGMSWVRQAPGKGLEWVSSLTPNGGSTYYADSVKGRFTISRDNAKNTLYLQMNSLKPEDTALYYCAKNSYYGAMDYWGQGTQVTVSSHHHHHH
For B2, the Endpoint dilution factor [1] was 2.8, the “Potency IU/mg” value [1] was 1.21 IU/mg and the “SDA concentration providing full protection” value [1] was 500 nM. The “minimal absorbance value (GT1b-TeNT inhibition)” value [2] was 0.13 A450, the “Effective SDA Concentration at A450 0.56” value [3] was 77 ng/mL and the maximal absorbance value [4] was 1 A450. The “Effective SDA Concentration at A450 0.2” value [5] was 63 ng/mL, the maximal absorbance value [6] was 1.51 A450 and the “Effective SDA Concentration at A450 0.15” value [7] was 4.9 ng/mL. For the same binder, the maximal absorbance value [8] was 1.16 A450, the “Effective SDA Concentration at A450 0.15” value [9] was 2 ng/mL and the maximal absorbance value [10] was 1.47 A450. For the same binder, the “Effective SDA Concentration at A450 0.3” value [11] was 2.2 ng/mL, the Kd [12] was 15.8 pM and the koff [12] was 6.77e-06 s⁻¹. The kon [12] was 429000 M⁻¹ s⁻¹, the maximal absorbance value [13] was 0.78 A450 and the “Effective SDA Concentration at A450 0.3” value [14] was 23 ng/mL.

B3: SVT03 (VHH)
VHH: QVQLQQSGGGSVQTGDSLTLSCTASGGSLNSYFVGWFRQSGGKEREFVSVIARTGRSTSYADSVKGRFTISRDNAANTVFLTMNNLRPDDTAIYYCAAVGRPGVLHLTQSYDYWGQGTQVTVSS
B3 was tested, and the binding result [15] was “no binding (tested: tenfold diluted supernatant)”, the “absorbance at 450 nm” value [16] was 0.091 A450 and the “absorbance at 450 nm” value [17] was 0.061 A450. For the same binder, the “absorbance at 450 nm” value [18] was 0.534 A450 and the “absorbance at 450 nm” value [19] was 1.29 A450.

B4: SVT03L (VHH)
VHH: QVQLQQSGGGSVQTGDSLTLSCTASGGSLNSYFVGWFRQSGGKEREFVSVIARTGRSTSYADSVKGRFTISRDNAANTVFLTMNNLRPDDTAIYYCAAVGRPGVLHLTQSYDYWGQGTQVTVSS
notes: yeast-produced
B4: no binding [15].

B5: SVT02 (VHH)
VHH: QVQLQQSGGGSVQAGGSLRLSCVGPQRTFSTYGMGWFRQAPGKEREFVAGINYKGDTTYYADSVKGRFTISRDNAKNTLYLQMDSLKPEDRAVYQCARKGGLGGDYRDAGQYRYWGQGTQVTVSS
In the case of B5, the binding result [15] is reported as “no binding (tested: tenfold diluted supernatant)”, the “absorbance at 450 nm” value [16] is reported as 0.078 A450 and the “absorbance at 450 nm” value [17] is reported as 0.06 A450. The “absorbance at 450 nm” value [18] was 0.511 A450 and the “absorbance at 450 nm” value [19] was 1.34 A450.

B6: SVT02L (VHH)
VHH: QVQLQQSGGGSVQAGGSLRLSCVGPQRTFSTYGMGWFRQAPGKEREFVAGINYKGDTTYYADSVKGRFTISRDNAKNTLYLQMDSLKPEDRAVYQCARKGGLGGDYRDAGQYRYWGQGTQVTVSS
notes: yeast-produced
B6: no binding [15].

B7: SVT15-3FW4M-GS2-SVG06M4-H6 (bispecific antibody)
chain: QVQLQESGGGLVQTGGSLRLSCRASGRAFANYHFGWFRQAPGKDREFVASISWKGGSTYYANFALGRFTSSVDRAESSVYLQMSGLTPEDTATYYCAAHDGGDWNYHTGMDYWGQGTQVTVSSGGGGSGGGSEVQLVESGGALVQPGGSLRLSCAASGFPFSAYDMTWVRQAPGQGLEWVSTIHKSGGITTYADSVKGRFTISRDNAKNTLYLQMNNLESEDTAVYYCAKALRAHNSDYVGRNALGSWGQGTQVTVSSHHHHHH
B7 was tested, and the “minimal absorbance value (GT1b-TeNT inhibition)” value [2] was 0.12 A450, the “Effective SDA Concentration at A450 0.56” value [3] was 131 ng/mL and the maximal absorbance value [4] was 0.07 A450. The maximal absorbance value [6] was 0.37 A450, the “Effective SDA Concentration at A450 0.15” value [7] was 37 ng/mL and the maximal absorbance value [8] was 1.23 A450. The “Effective SDA Concentration at A450 0.15” value [9] was 4.3 ng/mL, the maximal absorbance value [10] was 1.3 A450 and the “Effective SDA Concentration at A450 0.3” value [11] was 8.3 ng/mL. The maximal absorbance value [13] was 0.29 A450 and the “Effective SDA Concentration at A450 0.3” value [14] was over 1000 ng/mL.

B8: SVT02-GS2-SVG13M4-H6 (bispecific antibody)
chain: QVQLQQSGGGSVQAGGSLRLSCVGPQRTFSTYGMGWFRQAPGKEREFVAGINYKGDTTYYADSVKGRFTISRDNAKNTLYLQMDSLKPEDRAVYQCARKGGLGGDYRDAGQYRYWGQGTQVTVSSGGGGSGGGSEVQLVESGGGLVQPGGSLRLSCEASGFTFDDYGMSWVRQAPGKGLEWVSSLTPNGGSTYYADSVKGRFTISRDNAKNTLYLQMNSLKPEDTALYYCAKNSYYGAMDYWGQGTQVTVSSHHHHHH
In the case of B8, the Endpoint dilution factor [1] is reported as under 1, the “SDA concentration providing full protection” value [1] is reported as over 1000 nM and the “minimal absorbance value (GT1b-TeNT inhibition)” value [2] is reported as 0.77 A450. The “Effective SDA Concentration at A450 0.56” value [3] was over 1000 ng/mL, the maximal absorbance value [4] was 0.18 A450 and the maximal absorbance value [6] was 0.06 A450. For the same binder, the “Effective SDA Concentration at A450 0.15” value [7] was over 1000 ng/mL, the maximal absorbance value [8] was 0.09 A450 and the “Effective SDA Concentration at A450 0.15” value [9] was over 1000 ng/mL. For the same binder, the maximal absorbance value [10] was 1.32 A450, the “Effective SDA Concentration at A450 0.3” value [11] was 9.1 ng/mL and the Kd [12] was 98.7 pM. It also gave a koff [12] of 0.000121 s⁻¹, a kon [12] of 1.23e+06 M⁻¹ s⁻¹ and a maximal absorbance value [13] of 0.19 A450. For the same binder, the “Effective SDA Concentration at A450 0.3” value [14] was over 1000 ng/mL.

— patent US20240376185A1 (SMIVET B V, published 2024)
